Test [1] addresses murine C3 or a fragment of C3, deposited on particles opsonized with mouse serum (mouse) (UniProt P01027). Nature of the test: cell-based or functional assay.
Test [2] deals with C3b dimers (C3b2) (human) (UniProt P01024). Nature of the test: SPR, CRIg-Fc captured on a CM5 chip via an antibody to the Fc tag, dimeric C3b injected, response at equilibrium. Background: In SPR one partner is held on a chip, and binding of the other changes the refractive index at the surface.
Test [3] addresses C3b (purified; species not stated in Examples 12, 13, 19, 20) (UniProt P01024). In words: ELISA. Particulars: Fc fusion.
The target of test [4] is murine C3 or a fragment of C3, deposited on particles opsonized with mouse serum (mouse) (UniProt P01027). Nature of the test: flow cytometry. Particulars: Fc fusion.
Target sequence in this assay (P01027 25-666, chain 1 of 2): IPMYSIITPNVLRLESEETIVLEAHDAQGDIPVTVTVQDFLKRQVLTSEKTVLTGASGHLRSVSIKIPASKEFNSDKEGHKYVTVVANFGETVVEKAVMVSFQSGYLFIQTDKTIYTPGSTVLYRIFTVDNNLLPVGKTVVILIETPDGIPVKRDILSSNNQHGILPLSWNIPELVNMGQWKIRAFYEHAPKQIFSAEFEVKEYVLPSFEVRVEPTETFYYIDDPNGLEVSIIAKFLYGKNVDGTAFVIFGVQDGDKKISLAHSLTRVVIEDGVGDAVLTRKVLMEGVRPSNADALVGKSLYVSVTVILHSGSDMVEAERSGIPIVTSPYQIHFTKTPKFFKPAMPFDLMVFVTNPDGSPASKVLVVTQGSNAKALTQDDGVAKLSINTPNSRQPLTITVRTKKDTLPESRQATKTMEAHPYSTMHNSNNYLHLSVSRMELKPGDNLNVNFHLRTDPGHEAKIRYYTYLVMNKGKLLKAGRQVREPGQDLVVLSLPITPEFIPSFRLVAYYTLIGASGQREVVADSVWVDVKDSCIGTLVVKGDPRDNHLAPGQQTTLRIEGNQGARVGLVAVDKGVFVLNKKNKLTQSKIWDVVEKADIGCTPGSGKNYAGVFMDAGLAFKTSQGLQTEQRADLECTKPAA
Target sequence in this assay (P01027 749-1663, chain 2 of 2): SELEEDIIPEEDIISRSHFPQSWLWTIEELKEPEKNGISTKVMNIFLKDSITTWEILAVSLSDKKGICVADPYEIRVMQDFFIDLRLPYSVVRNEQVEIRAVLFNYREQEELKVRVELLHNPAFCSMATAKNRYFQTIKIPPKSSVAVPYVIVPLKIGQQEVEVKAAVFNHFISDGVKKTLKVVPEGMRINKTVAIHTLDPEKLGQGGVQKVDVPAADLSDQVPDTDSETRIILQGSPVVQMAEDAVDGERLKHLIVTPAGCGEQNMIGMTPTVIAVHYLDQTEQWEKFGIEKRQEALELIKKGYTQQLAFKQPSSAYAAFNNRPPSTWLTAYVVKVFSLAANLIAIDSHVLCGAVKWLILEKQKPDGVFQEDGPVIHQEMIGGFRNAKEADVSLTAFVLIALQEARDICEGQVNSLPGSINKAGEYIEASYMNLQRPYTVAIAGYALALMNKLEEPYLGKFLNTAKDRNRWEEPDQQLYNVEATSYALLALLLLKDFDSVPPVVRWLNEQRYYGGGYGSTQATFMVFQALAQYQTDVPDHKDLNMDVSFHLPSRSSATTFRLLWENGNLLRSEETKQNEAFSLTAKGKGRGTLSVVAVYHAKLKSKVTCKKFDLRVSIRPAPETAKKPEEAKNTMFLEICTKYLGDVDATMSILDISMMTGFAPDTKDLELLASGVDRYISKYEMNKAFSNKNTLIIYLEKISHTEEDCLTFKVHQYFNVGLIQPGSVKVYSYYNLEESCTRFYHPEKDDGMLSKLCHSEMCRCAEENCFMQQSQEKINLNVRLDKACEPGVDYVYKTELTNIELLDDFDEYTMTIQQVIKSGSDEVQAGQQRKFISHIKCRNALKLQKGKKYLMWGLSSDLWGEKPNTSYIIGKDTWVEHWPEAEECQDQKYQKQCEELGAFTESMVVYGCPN

Where only a bound is given, the exact number is not on record here.

Regarding “complement receptor 3 (CR3) on mouse Kupffer cells (from UniProt P05555 17-1153; P11835 24-771)”, in test [1], the further reduction in rosette formation with the addition of CR3 blocking antibody is < 20%.
A word on the Kd: it is the equilibrium constant for the complex coming apart. A lower Kd goes with higher affinity. Substance “huCRIg(L)-Fc fusion protein (from UniProt Q9Y279 20-283)” returned a Kd in test [2] of 0.131 µM.
The same measure, in the same setting: then “huCRIg(S)-Fc fusion protein (from UniProt Q9Y279 20-283)”, with 0.044 µM.
With “human CRIg-Fc fusion protein (long or short form not specified) (from UniProt Q9Y279 20-283)”, the Kd in test [3] was determined as 0.075 µM.
On to “murine CRIg expressed on the cell surface (receptor)”, for which the reduction in E-IgM rosetting of CRIg ko KCs compared to CRIg wt KCs in test [1] was 60%.
Take murine CRIg-Fc fusion protein: the values for the Kd in test [3] and in test [4] were 0.05 µM and 0.017 µM, respectively.
